assay: yeast display, Sf9 membrane polyspecificity reagent, FACS + sequencing; frameworks hold sequencing errors
Summary of the method: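 Polyreactivity labels are assigned by the sorting gate from which each nanobody was recovered. The gates were low and high (top ~1%), set on anti-HA fluorescence for expression and streptavidin fluorescence for reagent binding. Before sorting, galactose-induced (36–48 hours) yeast display cells were stained for 1 hour at 4 °C with 10% biotinylated, detergent-solubilized Sf9 membrane reagent.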

| Sequence | polyreactivity (PSR sort gate) |
| --- | --- |
| QVHLVESGGGLVQAGGSLRLSFAASGSTFEDNAMGWYRQAPGKERELVAGISTNGGSTSYADSVKGRFTISRDNAKNTVYLQMNSLKPEVTAVYYCAKGLYVQFDYWGQGTQVTVSS | low polyreactivity |
| QVHLVESGGGLVQAGGSLRLSFAASGYTLSDNAMGWYRQAPGKERELVATIDFGGGSTYYADSVKGRFTISRDNAKNTVYLQRNSLKPEDTAVYYCNTEWTSLSTSSLGGRYDHWGQGTQVTVSS | low polyreactivity |
| QVHLVESGGGLVQAGGSLRLSFAAYGIIFKYYAMVWYRQAPGKERELVASITDRGGSTYYSDSLKGRFTISRDNAKNTFYLQMNSLKPEDTAVYYCAAVPSTGKSGIRGGYWGQCTQVTVSS | high polyreactivity |
| QVHLVESGGGLVQAGGSLRLSSAASGITFVINAMGWYRQAPGKERELVASINFDTDTTYADSEKGRFTISRDNAKNTVYLQMNSLKPEDTAVYYCNADLPWARHTVDSIEFDYWGQGTQVTVSS | low polyreactivity |
| QVHLVESGGGLVQAGGSLRLSSPASGRIFQDNAMGWYRQAPGKERELVAAISSSGGSTYYADSVKGRFTISRDNAKNTVYLHMNSLKPEDTAVYYCAADYYWYWDLYDYWGQGTQVSVSS | high polyreactivity |
| QVHLVESGGGLVQAGGSLRLTCAASGFTFQGYAMGRYRQAPGKERELVAAISIGGVRTYYADSVKGRFTISRDNAKNTVYLQMNSLKPEDTAVYYCAKDGSKLSSYNYWGQGTQVTVSS | high polyreactivity |
| QVHLVESGGGLVQAGGSLRLTCAASGIIFRWYAMGWYRQAPGKERELVAAISSGGGRTHYADSVKGRFTISRDNAKNTVYLQMNSLKPEDTAVYYCAAALRGQSSRFDYWGQGTQVTVSS | high polyreactivity |
| QVHLVESGGGLVQAGGSLRLTCAASGSIFRFYTMGWYRPATGKERELVATISRGGSTNYADSVKGRFTISRDNAKNSVSLQMNSLKPEVTGVYYCNFGALYSTYWGYGYDYWGQGTQVTVSS | high polyreactivity |
| QVHLVESGGGLVQAGGSLRLTCSASGFTFSTYAMGWYRPAPGKESEMVAVISWNGGSTYYADTVKGRFTISRYNAKNTVYLQMNSLKTEDTAVYYCAARGSFKKGYWGQGTQVTVSS | high polyreactivity |
| QVHLVESGGGLVQAGGSLRVSCAASGSIFLDNAMGWYRQAPGKERELVADISYSGGSTYYADSVKGRFTISRDNAKNTVYLQMISLKPEDTAVYYCAAGVQLTVPPLRSSVTEYDYWGQGSQVTVSS | low polyreactivity |
| QVHLVESGGGLVQAGGSLRVSCAASGSIFPDNAMGWYTQAPGKERELVAAITFSGGRTYYADSVKGRFTISRDNAKNTVYLQMNSQKPEDTAVYYCATAKGVKLYRYPDYSGYYPYDYWGQGTQVTVSS | high polyreactivity |
| QVHLVESGGGLVQAGGSLSLSCAASGFTYTSYAMGWYRQAPGTEREFVAAIRRSGSGTYYADSVKGRFTISRVNAKNTVYLQMNSLNPEDTAVYYCAVVPPRLYYHYDYWGQGTQVTVSS | high polyreactivity |
| QVHLVESGGGLVQAGVSLRLSCAASGSIFEGNGMGWYRQAPGKERELVAAITFRSGSTYYADSVKGRFTNSRDNAKNTVYLQMNSLKPEDTAVYYCAADEYYQVSAYDYWGQGTKVTVSS | low polyreactivity |
| QVHLVESGGGLVQAGVSLRLSCPASGIIFWFYAMGWYRQSPGKERQLVAAISGDGDSTYYADSVKGRFTISRDNAKNTVYLQMNSLKPEDTAVYYCAAEWDPVFATDEDDYWGQRTQVTVSS | low polyreactivity |
| QVHLVESGGGLVQEGGSLRLTSAASGITFVRNTLGWYRQAPGKERELVAAIDSGGNTYADSVKGRFTITRDNAKNTVYLQMNSLKPEDTAVYFCAVDGGEVSSYGYWGQGTQVTVSS | low polyreactivity |
| QVHLVESGGGLVQSGGSLRLSCAASGRIFYYNAMGWYRQAPGKERELVAAITSSSGSSTYYADSVKGRFTISRDNAKNTVYLQMNSLKPEDTAVYYCAADATFIIRYLSRSDYWGQGTQVTVSS | low polyreactivity |

| Sequence | polyreactivity (PSR sort gate) |
| --- | --- |
| QVHLVESGGPLVQAGGSLRLSCAASGYTFWGNAMGWYRQAPGKERELVAGITGSGVSTYYADSVKGRFTISRDNAKNTVYLQMNNLKPEDTAVYYCARRVVFAHKYATSYFLLEYGYWGQGTQVSVSS | low polyreactivity |
| QVHLVESGGRLVQAGGSIRLSCAASGLTYGSYAMGWYRQAPGKERELVAAIYQSGGSTYYADSVMARFTISRDNANNTVYLQMNRLKPEDTVVYYCNAEAWVTLDWWQWVAYDFWGQGTQVTVSS | high polyreactivity |
| QVHLVESGGRLVQAGGSLRLSCAESGFTFGSNVKGAYRQAPGKEREFVDAITSSGRTKYADSVKGRFTISRDNAKNTVYLQMNSLKPEDTAVYYCAARPSQWNYDYRRVYYWVQGTQVTVSS | high polyreactivity |
| QVHLVESGGVLVQAGGSLRLSCAASAGNFDTYAMGRYRQAPGKEREMVADITWSGGSTYYADSVKGRFTISRDNAKNTVYLQMNSLKPEDTAVYYCNADDPSKLGYEPDYWGQGTQVTVSS | low polyreactivity |
| QVHLVESGGVLVQAGGSLRLSCAASGFTFNRYAMGWYRQAPGKERELVAAITSAGNTYYADSVKARFTNSRDNGKNTVYLQMNSMKPEDTAVYYCLNGRYWRRYDYWGQGTQVTVSS | high polyreactivity |
| QVHLVESGGVLVQAGGSLRLSCAASGSIFDDYAMGWYRQAPGKERELVAAISSSGTSTYYADSVKGRFTISRDTANNTVYLQMNSLKPEDTAVYYCAARSAILDYWGQGTQVTVSS | low polyreactivity |
| QVHLVESRGVLVQAGCSLRLSCAASGRIFTDYAMGWYRQAPRKERELVAAISGSGGSTYYADSVKVRFSISRDNAKNNVYLQMNSLKPEDTAVYYCAARVARRYEWGQGTQVTVSS | high polyreactivity |
| QVHLVESRGVLVQAGGSLRLSCAASGRTFGYYAMGWYRQAPGKERELVAAINGSGSRTYYADSVKGRFTISRDNAKNSVYLQMNSLKPEDSAVYYCAATYPKYQYDYWGQGTQVTVSS | high polyreactivity |
| QVHLVESVGGLVQAGGSLRLSCAASGYIFGGYAMAWYRQAPGKERELVAAISRSGGSTYYADSVKGRFTISRDNAKNTVYLQINSLKPVDTAVYYCAVRGYTLPYGYWGQGTQVTVSS | high polyreactivity |
| QVHLVESVGGLVQAGGSLRLSSPASGGTLWVNTMGWYRQAPGKERELVAAISRRGGSTYYADSVKGRFTISRDNAKNTVYLQMNSRKPEDTAVYYCNARENAVSLRDYWGQGTQVTVSS | high polyreactivity |
| QVHLVESWGGLVQAGGSLRLSCAASGSTFGYNAMGWYRQAPGKERELVAAITSGGSTNYADSVKGRFTISRDNAKNTVYLQMNSLKPEDTAVYYCAKLAADRRSYYWGQGTQVTVSS | high polyreactivity |
| QVHLVQSGGGLVQAGGSLRLSCAASGSILYFYAKGWYRQAPGKERELVAAISWTGGSTYYADSVKGRFTISRDNAKNTVYLQMNSLKPEDTAVYYCAAELWYEGYDYWGQGTQVTVSS | high polyreactivity |
| QVHLVVSGGGLVQAGRSLRLICAASGSTFKAYAMGWYRQAPGKERELVAAITRRGTSTYYADSVKGRFTISRDNAKKTVYLQMNSLKPEDTADYYSNAKYVSDRSSAVSFDYWGQGTQVTVSS | low polyreactivity |
| QVHQQESGGDLEQAGGSLRLSCTASGTISDVRFMGWYRQAPGKERELVATISYVTITYYADSVKGRFTISRDSEKHRVSADDEHETGRYRGVFLLYYWGLGTQVTVSS | low polyreactivity |
| QVHRVESGGGLVQAGGSLRLSCDASGNIFYDYAMGWYRQGPGKERELVAAIDLSDGSTYYSDSVKGRFTISRDNAKNTVYFQMNSLKPDDTAVYYCAADIIAAWTSDYYYWGQGSQVTVSS | high polyreactivity |
| QVHRVESGGGLVQAGGSLRVSCAATGINFSDYAMGWYRQEPGKERQLVAAITGGGSTYYADSVKGRFTISRDNAKNTVYLQMNSLKPEDTAVSYCNAVWARLWIRSTEVDYRGQGTQVTVSS | low polyreactivity |
